As usually defined, the Kd is the equilibrium constant for the complex coming apart.

Bounds are passed on as bounds.

In one assay the target is MK1966. Kind of assay: SPR.
In another assay the target is MK1966 (benchmark). Kind of assay: kinetic binding assay.
The target of the next assay is hIL10R1. Nature of the assay: kinetic binding assay.
Another assay has as its target cynoIL10. Nature of the assay: kinetic binding assay.
For assay [1], the target named is T1, IL-10 (Accession no. P22301) (UniProt P22301 19-178).
T1 chain: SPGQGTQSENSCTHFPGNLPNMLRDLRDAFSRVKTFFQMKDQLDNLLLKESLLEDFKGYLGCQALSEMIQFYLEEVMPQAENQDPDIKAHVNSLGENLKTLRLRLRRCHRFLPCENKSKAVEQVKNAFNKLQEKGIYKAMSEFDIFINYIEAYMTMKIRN
Kind of assay: kinetic binding assay.

The target of assay [2] is T1, IL-10 (Accession no. P22301). Kind of assay: SPR. On the technique in general: In SPR one partner is held on a chip, and binding of the other changes the refractive index at the surface.
The target in the next assay is Cyno IL10. Kind of assay: SPR.

B1: Human IL10 (ligand)
chain: T1 chain
In turn, B1 displayed a Kd with MK1966 of 0.14 nM. This counts as sub-nanomolar.

B2: hIL10 (ligand)
chain: T1 chain
Consider B2, for which binding in the assay with MK1966 (benchmark) was characterised by a dissociation constant (Kd) of 0.0266 nM.

B3: αIL-10R candidate (antibody, V domains shown)
VH: QVQLQESGPGLVKPSETLSLTCTVSGGSISSDYWSWIRQPAGKRLEWIGRIFTSGSTNYNPSLKSRVTMSVDTSKNQFSLKLNSLTAADTAVYYCARDDWYFDLWGRGTLVTVSS
VL: EIVMTQSPATLSVSPGERATLSCRASQSVSNNLAWYQQKPGQAPRFLIYGASTRATGMPARFSGSGSGTEFTLTISSLQSEDFAVYFCQQYNEWPWTFGQGTKVEIK
As for B3, in the assay with hIL10R1, the Kd turned out to be 0.117 nM.

B4: h49G08 (antibody, V domains shown)
VH: EVQLVESGGGLVQPGGSLRLSCAASGFTFSDYYMYWVRQAPGKGLEWVSTISDGGSYTYYPDSVKGRFTISRDNAKNNLYLQMNSLRAEDTAVYYCARGYYYGLFTYWGQGTLVTVSS
VL: DIQMTQSPSSLSASVGDRVTITCRASQDVNTGLNWYQQKPGQAPKLLIYWASSRQSGVPSRFSGSGSGTDFTLTISSLQPEDFATYYCQQHYSTPYTFGQGTKLEIK
Molecule B4 yielded a Kd with cynoIL10 of less than 0.001 nM.

B5: 49G08_H1L2 (antibody, V domains shown)
VH: B4 VH
VL: B4 VL
Turning to B5, the Kd in assay [1] was found to be 0.0199 nM; in assay [2] it was 0.16 nM.

B6: hu49G08 (antibody, V domains shown)
VH: B4 VH
VL: B4 VL
In turn, B6 came in with a Kd in the assay with Cyno IL10 of 0.11 nM.

The values are drawn from US20260234240A1 (published 2026).
